Biological target: T1, 人源IL-4R (human IL-4R), overexpressed on LN229, U251 and HEK293 cells (human, UniProt P24394 26-825)
T1 sequence (looked up): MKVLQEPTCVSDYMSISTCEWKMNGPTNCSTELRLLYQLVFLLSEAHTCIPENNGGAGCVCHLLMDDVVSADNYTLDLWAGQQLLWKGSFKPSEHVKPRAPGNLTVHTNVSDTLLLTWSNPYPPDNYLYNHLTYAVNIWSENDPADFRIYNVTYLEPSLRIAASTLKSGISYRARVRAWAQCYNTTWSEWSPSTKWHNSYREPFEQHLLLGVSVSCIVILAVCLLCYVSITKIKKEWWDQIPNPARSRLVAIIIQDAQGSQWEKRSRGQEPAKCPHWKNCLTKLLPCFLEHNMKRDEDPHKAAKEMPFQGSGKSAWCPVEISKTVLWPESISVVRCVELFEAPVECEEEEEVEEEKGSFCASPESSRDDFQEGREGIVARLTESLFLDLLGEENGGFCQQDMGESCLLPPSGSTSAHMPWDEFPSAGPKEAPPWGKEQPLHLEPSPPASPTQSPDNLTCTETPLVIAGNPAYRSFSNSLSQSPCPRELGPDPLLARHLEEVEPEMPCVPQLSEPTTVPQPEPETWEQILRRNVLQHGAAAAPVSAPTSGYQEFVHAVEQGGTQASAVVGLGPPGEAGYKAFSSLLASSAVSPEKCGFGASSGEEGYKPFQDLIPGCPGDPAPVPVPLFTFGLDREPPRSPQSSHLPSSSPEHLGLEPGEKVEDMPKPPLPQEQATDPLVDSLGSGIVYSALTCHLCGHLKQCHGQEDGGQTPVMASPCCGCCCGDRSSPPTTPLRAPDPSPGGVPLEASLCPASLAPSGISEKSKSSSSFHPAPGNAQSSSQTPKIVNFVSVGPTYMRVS
Assay: cell-based or functional assay

B1: 25G7-C1, DAR=5.86 (antibody, human IgG1, kappa, V domains shown)
VH: EVQLVESGGGLVQPGGSLRLSCAASGFTFSDYGMHWVRQAPGKGLEWVAFISSGSSIIYYADIVKGRSTISRDNAKNTLYLQMNSLRAEDTAVYYCTRGNKRGFFDYWGQGTLVTVSS
VL: EIVLTQSPATLSLSPGERATLSCRASSSVPYMYWYQQKPGQAPRLLIYLTSNLASGIPARFSGSGSGTDFTLTISSLEPEDFAVYYCQQWRAYPPMLTFGGGTKVEIKR
modifications: 依喜替康类似物 (exatecan analogue) joined through a linker; measured DAR 5.86; attachment residues not stated
With B1 the “IC50, 体外毒性 in HEK293-IL4R细胞” value was 0.458 nM.

B2: 25G7-C1, DAR=3.52 (antibody, human IgG1, kappa, V domains shown)
VH: EVQLVESGGGLVQPGGSLRLSCAASGFTFSDYGMHWVRQAPGKGLEWVAFISSGSSIIYYADIVKGRSTISRDNAKNTLYLQMNSLRAEDTAVYYCTRGNKRGFFDYWGQGTLVTVSS
VL: EIVLTQSPATLSLSPGERATLSCRASSSVPYMYWYQQKPGQAPRLLIYLTSNLASGIPARFSGSGSGTDFTLTISSLEPEDFAVYYCQQWRAYPPMLTFGGGTKVEIKR
modifications: 依喜替康类似物 (exatecan analogue) joined through a linker; measured DAR 3.52; attachment residues not stated
With B2 the “IC50, 体外毒性 in HEK293-IL4R细胞” value was 3.29 nM.

From patent publication CN114652853A (JIANGSU ZHEREI MEDICINE CO LTD; SHANGHAI TENGDI MEDICINE CO …, dated 2022)
